Assay results published in patent US8410045B2, “Camptothecin-peptide conjugates and pharmaceutical compositions containing the same” (Drais Pharmaceuticals, Inc., priority 2006, dated 2013).
Where two headings read alike, the source gives them in different places. Where a SMILES comes first, the peptide text is derived from it. The star is where a group is joined. X1 = CCc1c2c(nc3ccc(OC(=O)CCCCCN4C(=O)CC(*)C4=O)cc13)-c1cc3c(c(=O)n1C2)COC(=O)[C@]3(O)CC

What was measured:
[1] = Pharmacokinetic study in the dog (blood, HPLC fluorescence); type: in vivo; settings: dog blood; non-toxic doses (DPV1047-BCH-SN38 ≦20 mg/kg, DPV1047-MIC-SN38 ≦50 mg/kg)
Method: Peripheral blood samples were taken at different times following infusion for pharmacokinetic analysis.
Blood samples (2.5 mL) were collected in 5 mL in trisodium citrate tubes (Sarstedt S-Monovette® 9NC) containing 2.5 mL of 5% TFA (v/v) and vortexed for 5 seconds before storage at −80° C. (for less than two weeks).
Samples were then analyzed after a TFA and acetonitrile extraction by an HPLC fluorescence method, described below. […] Whole blood samples were acidified with TFA to protect the ester link of the conjugate against hydrolysis and allow protein precipitation to improve conjugate and SN38 recovery.
Five hundred microliters of each sample were then placed in 1.5 mL micro-centrifuge tubes to and centrifuged at 16000×g 3 min at +4° C. […] Methanol (100 μL) was then immediately added and the mixture stirred vigorously (vortex) for 5 seconds. Samples were then centrifuged at 16000×g, 3 min at room temperature.
One hundred and fifty microliters of the supernatant was recovered for HPLC analysis.
DPV1047-BCH-SN38 and its metabolite SN38 were separated by high-performance liquid chromatography (HPLC Agilent 1100 with a fluorescence detector) using the following method: […]

[2] = Stability of conjugates in citrated plasma at 37° C. (half life time, HPLC fluorescence); type: in vitro ADME, human; settings: human, plasma
Method: (§1) The stability of the conjugates was tested in citrated plasma (10% (v/v) sodium citrate buffer, 0.106M) from different species (see Table 1 below). The conjugates at 2.55 μM were incubated at 37° C. in plasma. Samples were analysed using the HPLC fluorescence method described below (see chromatographic equipment and conditions) following TFA/acetonitrile extraction and the amount of free camptothecin, analogs or derivatives thereof (e.g. SN38) released by the conjugates was measured.
(§2) Chromatographic equipment and conditions: 150 μL of each sample were placed in 1.5 mL micro-centrifuge tubes. 450 μL of 5% (v/v) TFA in H2O was added to each tube and the mixture was vortexed for 5 seconds. Samples were then centrifuged at 16000 g, 3 minutes at +4° C. 100 μL of supernatant were placed in 1.5 mL micro-centrifuge tubes. Methanol (100 μL) was then immediately added and vortexed for 5 seconds. Samples were then centrifuged at 16000 g, 3 minutes at room temperature. 150 μL of supernatant were recovered for HPLC analysis. Conjugates, metabolites and camptothecin derivative (i.e. SN38) were separated by high-performance liquid chromatography (HPLC; Agilent 1100 series equipped with a fluorescence detector) using a 4.6×100 mm ([…] particle size) Luna C18(2) column (Phenomenex ref. 00D-4251-E0, Le Pecq, France). The aqueous component of the mobile phase (A) was 0.1% (v/v) TFA in water. The organic modifier (B) was acetonitrile containing 0.1% (v/v) TFA. For the conjugate and its metabolites an elution gradient increasing linearly the proportion of B from 15 to 37% in 2 min, from 37 to 47% in 6 min, followed by 2 min at 90% was applied with a constant flow rate of 1.2 mL/min. The proportion of B was then returned to the initial condition for 3.0 min.
(§3) The half life time of conjugate corresponds to the time necessary to have 50% by mole of free camptothecin, analogs or derivatives thereof released by the conjugates of the invention. In human plasma, the half life time of conjugate DPV1047-linker #1-SN38 (less than 5 mins) was shorter than that of conjugate DPV1047-linker #2-SN38 (6-7 mins), which, in turn, was shorter than that of conjugate DPV1047-linker #3-SN38 (12 mins).
(§4) As in Example II, the stability of these conjugates was tested in either human or dog plasma. Following incubation at 37° C., samples were analyzed after a TFA acetonitrile extraction by the HPLC fluorescence method described in Example II. The in vitro cytotoxicity (IC50) of these compounds was also evaluated.

[3] = Toxicity study in the beagle dog following intravenous infusion
Method: Adult female and male beagle dogs were individually housed with free access to tap water. A pellet diet was distributed daily.
Dogs (1 dog for each drug and dose) were infused intravenously through the cephalic or saphenous vein. These intravenous infusions were made using a single-use catheter (Intraflon®) and a plastic syringe connected to a syringe pump. During the injection, the animals were restrained in a hammock.
Conjugates were dissolved in water for injection (10% of final volume) and diluted with 0.9% NaCl to their final concentration. The volume administered to each animal was adjusted according to body weight.
Clinical signs, hematological and intestinal toxicities were monitored during a period of 15 days after infusion. Each animal was checked at least twice a day for mortality or signs of morbidity.
The body weight of each animal was recorded on the day −1, 4, 10 and 13.
Peripheral blood samples were taken into EDTA tubes for the determination of following parameters on days −1, 5, 11 and 14: erythrocytes, hemoglobin, mean cell volume, packed cell volume, mean cell hemoglobin concentration, mean cell hemoglobin, thrombocytes, leucocytes, differential white cell count with cell morphology.

[4] = Stability of conjugates in citrated plasma at 37° C. (half life time, HPLC fluorescence); type: in vitro ADME; settings: DPV1047-linker-SN38, 2.55 μM
Method: as §1, §2, §3

[5] = as above; type: in vitro ADME; settings: dog
Method: as §1, §2, §3, §4

[6] = system: HCT 116 human epithelial colon carcinoma cells; assay: cells; type: cell-based
Method: (§5) Cytotoxic evaluation was performed by seeded cells for 24 h prior to the addition of the therapeutic compound. Cells were incubated for 48 h (37° C.) with different dilutions of the therapeutic compound. Cell viability was then assessed using the WST-1 assay (Roche). The results are expressed as mean cytotoxic concentrations (IC50 value or molar concentration that inhibits 50% of cell viability) that were estimated from sigmoid regression, using Graph Pad Prism 3.02 software.
HCT 116 (ATCC #: CCL-247): human epithelial colon carcinoma cells. Cells were cultured in Mc Coy's 5a medium+1.5 mM L-glutamine and 10% fetal bovine serum. Cells were plated at a density of 8000 cells/well in 96-well plates.

[7] = system: NCI-H460 human epithelial lung carcinoma cells; assay: In vitro cytotoxicity (WST-1 cell viability); type: cell-based
Method: as §5
NCI-H460 (ATCC#: HTB-177): human epithelial lung carcinoma cells. Cells were cultured in RPMI 1640+glutamax and 10% of fetal bovine serum. Cells were plated at a density of 10,000 cells/well in 96-well plates.

[8] = background statement; cited from earlier work
[9] = In vitro human serum stability study; type: in vitro ADME
Description: Peptidic drug delivery systems have also been described in PCT patent application published under No WO 00/01417 filed by […] aiming to facilitate the delivery of different drugs, such as the 10-Hydroxycamptothecin. This patent application describes the use of homeobox peptide derived from the Drosophila antennapedia homoprotein (preferably a cell-penetrating peptide (CPP) named penetratin) for conjugation to a number of cytotoxic drugs, thus enhancing their delivery and/or therapeutic effect. […] Consequently the applicant has performed in vitro human serum stability studies using the conjugate described in example 29 of this patent application No WO 00/01417.

CCc1c2c(nc3ccc(OC(=O)CCCCCN4C(=O)CC(SC[C@H](N)C(=O)N[C@H](C(=O)N[C@@H](CCCCN)C(=O)N[C@@H](CCCNC(=N)N)C(=O)NCC(=O)N[C@@H](CC(C)C)C(=O)N[C@@H](CCCCN)C(=O)N[C@@H](CC(C)C)C(=O)N[C@@H](CCCNC(=N)N)C(=O)N[C@@H](Cc5c[nH]cn5)C(=O)N[C@H](C(=O)N[C@@H](CCCNC(=N)N)C(=O)N5CCC[C@H]5C(=O)N[C@@H](CCCNC(=N)N)C(=O)N[C@H](C(=O)N[C@H](C(=O)N[C@@H](CCCNC(=N)N)C(=O)N[C@@H](CCSC)C(=O)N[C@@H](CC(=O)O)C(=O)N[C@H](C(=O)O)C(C)C)[C@@H](C)O)C(C)C)C(C)C)C(C)C)C4=O)cc13)-c1cc3c(c(=O)n1C2)COC(=O)[C@]3(O)CC (stereo partly shown) [DPV1047-MIC-SN38] (H-C(X1)VKRGLKLRHVRPRVTRMDV-OH)
SN38 Cmax and AUC versus dose of the conjugate [1]: increased linearly with the dose | half-life ([2]; DPV1047-linker-SN38, 2.55 μM, citrated plasma, read-out: Half life time, Human plasma): 6 to 7 min | MTD as mg equivalent of SN38 ([3]; beagle dog, i.v. infusion): 6.5-9.1 mg equivalent of SN38 | WBC depletion ([3]; dog, 70 mg/kg): 94% | signs of toxicity ([3]; dog, 70 mg/kg): gastro-intestinal toxicity, diarrhea and emesis | Reduction in WBC at D5 (%) ([3]; dog, i.v. infusion, 10 mg/kg): −44% | Toxic signs Day 1 ([3]; dog, i.v. infusion, 10 mg/kg): None | Toxic signs Following Days ([3]; dog, i.v. infusion, 10 mg/kg): None | Reduction in WBC at D5 (%) ([3]; dog, i.v. infusion, 20 mg/kg): −57% | Toxic signs Day 1 ([3]; dog, i.v. infusion, 20 mg/kg): None | Toxic signs Following Days ([3]; dog, i.v. infusion, 20 mg/kg): None | Reduction in WBC at D5 (%) ([3]; dog, i.v. infusion, 40 mg/kg): −69% | Toxic signs Day 1 ([3]; dog, i.v. infusion, 40 mg/kg): None | Toxic signs Following Days ([3]; dog, i.v. infusion, 40 mg/kg): None | Reduction in WBC at D5 (%) ([3]; dog, i.v. infusion, 50 mg/kg): −53% | Toxic signs Day 1 ([3]; dog, i.v. infusion, 50 mg/kg): None | Toxic signs Following Days ([3]; dog, i.v. infusion, 50 mg/kg): None | Reduction in WBC at D5 (%) ([3]; dog, i.v. infusion, 70 mg/kg): −94% | Toxic signs Day 1 ([3]; dog, i.v. infusion, 70 mg/kg): Vomit | Toxic signs Following Days ([3]; dog, i.v. infusion, 70 mg/kg): Liquid feces D4 | MTD ([3]; dog, in vivo, iv): 50 to 70 mg/kg | clinical signs ([3]; dogs, 10, 20, 40 and 50 mg/kg): no clinical signs | half-life ([4]; time to 50% by mole free SN38 released, read-out: Half life time, Mouse plasma): < 3 min | half-life ([4]; monkey): 8 min | half-life ([4]; rat): 3 min | half-life ([5]; DPV1047-linker-SN38, 2.55 μM, citrated plasma, read-out: Half life time, Dog plasma): 36 min

CCc1c2c(nc3ccc(OC(=O)[C@H]4CC[C@H](CNC(=O)C5CCC(CN6C(=O)CC(SC[C@H](N)C(=O)N[C@@H](CCCNC(=N)N)C(=O)N[C@@H](CCC(N)=O)C(=O)N[C@H](C(=O)N[C@@H](CCCCN)C(=O)N[C@H](C(=O)N[C@@H](Cc7c[nH]c8ccccc78)C(=O)N[C@@H](Cc7ccccc7)C(=O)N[C@@H](CCC(N)=O)C(=O)N[C@@H](CC(N)=O)C(=O)N[C@@H](CCCNC(=N)N)C(=O)N[C@@H](CCCNC(=N)N)C(=O)N[C@@H](CCSC)C(=O)N[C@@H](CCCCN)C(=O)N[C@@H](Cc7c[nH]c8ccccc78)C(=O)N[C@@H](CCCCN)C(=O)N[C@@H](CCCCN)C(=O)O)[C@@H](C)CC)[C@@H](C)CC)C6=O)CC5)CC4)cc13)-c1cc3c(c(=O)n1C2)COC(=O)[C@]3(O)CC (stereo partly shown) [Penetratin-linker #5-SN38]
IC50 ([6]; 24 h): 0.057 µM | IC50 ([7]; 24 h): 0.053 µM | half-life ([2]; Table 10, SN38 conjugates, read-out: Human Plasma Half life time): 60 min | half-life ([5]; Table 10, SN38 conjugates, read-out: Dog Plasma Half life time): 150 min

CCc1c2c(nc3ccc(O)cc13)-c1cc3c(c(=O)n1C2)COC(=O)[C@]3(O)CC [SN38, 7-ethyl-10-hydroxy-camptothecin, reference compound]
IC50 ([6]; Table 11, 48-h continuous exposure, mean of three independent experiments, read-out: Drug concentration that inhibits 50% of cell viability (IC50), HCT 116): 0.007 µM | IC50 ([7]; Table 11, 48-h continuous exposure, mean of three independent experiments, read-out: Drug concentration that inhibits 50% of cell viability (IC50), NCI-H460): 0.022 µM | solubility in water (Solubility in water): ≤ 5 µg/mL | fold more active than irinotecan as an anti-proliferative agent [8]: at least 2000 fold

CC[C@H](C)[C@H](NC(=O)[C@H](CCCCN)NC(=O)[C@@H](NC(=O)[C@H](CCC(N)=O)NC(=O)[C@H](CCCNC(=N)N)NC(=O)[C@@H](N)CSC1CC(=O)N(CCC(=O)Oc2ccc3nc4c(cc3c2)Cn2c-4cc3c(c2=O)COC(=O)[C@]3(O)CC)C1=O)[C@@H](C)CC)C(=O)N[C@@H](Cc1c[nH]c2ccccc12)C(=O)N[C@@H](Cc1ccccc1)C(=O)N[C@@H](CCC(N)=O)C(=O)N[C@@H](CC(N)=O)C(=O)N[C@@H](CCCNC(=N)N)C(=O)N[C@@H](CCCNC(=N)N)C(=O)N[C@@H](CCSC)C(=O)N[C@@H](CCCCN)C(=O)N[C@@H](Cc1c[nH]c2ccccc12)C(=O)N[C@@H](CCCCN)C(=O)N[C@@H](CCCCN)C(=O)O (stereo partly shown) [reference compound]
half life time (stability) in human serum [9]: less than three | half-life ([2]; Table 14, 10-Hydroxycamptothecin conjugates, read-out: Human Plasma Half life time): < 3 min | half-life ([5]; Table 14, 10-Hydroxycamptothecin conjugates, read-out: Dog Plasma Half life time): 6 min
